Experimental data from article doi:10.1101/2024.09.19.614007 (bioRxiv, 2024).

Biological target: the molecule itself
Experiment: cryo-EM structure

B1: Escherichia coli glutamate kinase (enzyme, UniProt P0A7B5 1-367, looked up)
chain: MSDSQTLVVKLGTSVLTGGSRRLNRAHIVELVRQCAQLHAAGHRIVIVTSGAIAAGREHLGYPELPATIASKQLLAAVGQSRLIQLWEQLFSIYGIHVGQMLLTRADMEDRERFLNARDTLRALLDNNIVPVINENDAVATAEIKVGDNDNLSALAAILAGADKLLLLTDQKGLYTADPRSNPQAELIKDVYGIDDALRAIAGDSVSGLGTGGMSTKLQAADVACRAGIDTIIAAGSKPGVIGDVMEGISVGTLFHAQATPLENRKRWIFGAPPAGEITVDEGATAAILERGSSLLPKGIKSVTGNFSRGEVIRICNLEGRDIAHGVSRYNSDALRRIAGHHSQEIDAILGYEYGPVAVHRDDMITR
  stoichiometry N: 4
